{"source": "the Human Domainome abundance scans (Beltran et al. 2025)", "parents": {"B1": {"name": "Peroxisome proliferator-activated receptor delta, residues 71 to 145; numbered along this chain, Q03181 (parent)", "chain": "NMECRVCGDKASGFHYGVHACEGCKGFFRRTIRMKLEYEKCERSCKIQKKNRNKCQYCRFQKCLALGMSHNAIRF"}}, "note": "± gives the uncertainty stated by the source."}
{"variants_of": "B1", "test": "abundance fitness (aPCA) (normalised: wild type 0, dead -1); higher = more abundant; growth selection in yeast, the domain comes from the species named", "settings": "Homo sapiens"}
{"variant": "Y38H", "abundance fitness": "-0.718 ± 0.22"}
{"variant": "Y38V", "abundance fitness": "-0.74 ± 0.091"}
{"variant": "Y38W", "abundance fitness": "-0.397 ± 0.061"}
{"variant": "Y38P", "abundance fitness": "-0.758 ± 0.1"}
{"variant": "Y38R", "abundance fitness": "-0.846 ± 0.075"}
{"variant": "Y38M", "abundance fitness": "-0.631 ± 0.12"}
{"variant": "Y38C", "abundance fitness": "-0.741 ± 0.15"}
{"variant": "Y38Q", "abundance fitness": "-1.02 ± 0.26"}
{"variant": "Y38K", "abundance fitness": "-0.776 ± 0.14"}
{"variant": "Y38S", "abundance fitness": "-0.868 ± 0.1"}
{"variant": "Y38L", "abundance fitness": "-0.544 ± 0.077"}
{"variant": "Y38N", "abundance fitness": "-0.72 ± 0.23"}
{"variant": "Y38I", "abundance fitness": "-0.483 ± 0.12"}
{"variant": "Y38T", "abundance fitness": "-0.607 ± 0.099"}
{"variant": "Y38A", "abundance fitness": "-0.738 ± 0.079"}
{"variant": "Y38E", "abundance fitness": "-0.803 ± 0.11"}
{"variant": "R29L", "abundance fitness": "0.139 ± 0.035"}
{"variant": "R29I", "abundance fitness": "0.132 ± 0.065"}
{"variant": "R29N", "abundance fitness": "0.085 ± 0.066"}
{"variant": "R29W", "abundance fitness": "0.164 ± 0.045"}
{"variant": "R29T", "abundance fitness": "0.197 ± 0.044"}
{"variant": "R29K", "abundance fitness": "0.026 ± 0.06"}
{"variant": "R29P", "abundance fitness": "-0.901 ± 0.13"}
{"variant": "R29Q", "abundance fitness": "0.168 ± 0.045"}
{"variant": "R29G", "abundance fitness": "0.09 ± 0.03"}
{"variant": "R29V", "abundance fitness": "0.105 ± 0.039"}
{"variant": "R29Y", "abundance fitness": "-0.089 ± 0.086"}
{"variant": "E39D", "abundance fitness": "-0.063 ± 0.055"}
{"variant": "E39C", "abundance fitness": "-0.586 ± 0.13"}
{"variant": "E39A", "abundance fitness": "-0.057 ± 0.036"}
{"variant": "E39L", "abundance fitness": "-0.229 ± 0.041"}
{"variant": "E39I", "abundance fitness": "-0.191 ± 0.077"}
{"variant": "E39G", "abundance fitness": "-0.221 ± 0.033"}
{"variant": "E39M", "abundance fitness": "-0.167 ± 0.057"}
{"variant": "E39H", "abundance fitness": "-0.336 ± 0.1"}
{"variant": "E39K", "abundance fitness": "0.017 ± 0.057"}
{"variant": "I32Y", "abundance fitness": "-0.133 ± 0.082"}
{"variant": "I32L", "abundance fitness": "-0.095 ± 0.043"}
{"variant": "I32F", "abundance fitness": "-0.185 ± 0.092"}
{"variant": "I32Q", "abundance fitness": "-0.365 ± 0.093"}
{"variant": "I32C", "abundance fitness": "-0.234 ± 0.091"}
{"variant": "I32N", "abundance fitness": "-0.617 ± 0.2"}
{"variant": "I32P", "abundance fitness": "-0.869 ± 0.14"}
{"variant": "I32T", "abundance fitness": "-0.107 ± 0.054"}
{"variant": "I32H", "abundance fitness": "-0.405 ± 0.12"}
{"variant": "I32S", "abundance fitness": "-0.464 ± 0.067"}
{"variant": "I32A", "abundance fitness": "-0.221 ± 0.054"}
{"variant": "I32G", "abundance fitness": "-0.677 ± 0.078"}
{"variant": "I32M", "abundance fitness": "-0.142 ± 0.061"}
{"variant": "I32E", "abundance fitness": "-0.531 ± 0.12"}
{"variant": "I32D", "abundance fitness": "-0.5 ± 0.12"}
{"variant": "I32R", "abundance fitness": "-0.514 ± 0.068"}
{"variant": "R33S", "abundance fitness": "0.168 ± 0.043"}
{"variant": "R33T", "abundance fitness": "0.129 ± 0.055"}
{"variant": "R33D", "abundance fitness": "0.177 ± 0.069"}
{"variant": "R33E", "abundance fitness": "0.18 ± 0.053"}
{"variant": "R33Y", "abundance fitness": "-0.019 ± 0.13"}
{"variant": "R33Q", "abundance fitness": "0.058 ± 0.061"}
{"variant": "R33C", "abundance fitness": "0.11 ± 0.062"}
{"variant": "R33V", "abundance fitness": "0.072 ± 0.043"}
{"variant": "R33N", "abundance fitness": "0.082 ± 0.1"}
{"variant": "R33L", "abundance fitness": "0.089 ± 0.044"}
{"variant": "R33W", "abundance fitness": "-0.108 ± 0.061"}
{"variant": "R33H", "abundance fitness": "-0.091 ± 0.098"}
{"variant": "R33M", "abundance fitness": "0.088 ± 0.066"}
{"variant": "R33F", "abundance fitness": "0.208 ± 0.1"}
{"variant": "R33G", "abundance fitness": "-0.038 ± 0.039"}
{"variant": "R33P", "abundance fitness": "-0.972 ± 0.23"}
{"variant": "K35M", "abundance fitness": "-0.079 ± 0.06"}
{"variant": "K35P", "abundance fitness": "-0.509 ± 0.076"}
{"variant": "K35T", "abundance fitness": "-0.272 ± 0.055"}
{"variant": "K35H", "abundance fitness": "-0.169 ± 0.11"}
{"variant": "K35W", "abundance fitness": "-0.535 ± 0.091"}
{"variant": "K35D", "abundance fitness": "-0.028 ± 0.07"}
{"variant": "K35V", "abundance fitness": "-0.33 ± 0.059"}
{"variant": "K35I", "abundance fitness": "-0.655 ± 0.19"}
{"variant": "K35L", "abundance fitness": "-0.495 ± 0.061"}
{"variant": "K35C", "abundance fitness": "-0.015 ± 0.053"}
{"variant": "K35E", "abundance fitness": "0.063 ± 0.056"}
{"variant": "K35N", "abundance fitness": "0.04 ± 0.062"}
{"variant": "K35R", "abundance fitness": "-0.026 ± 0.036"}
{"variant": "K35S", "abundance fitness": "0.013 ± 0.039"}
{"variant": "K35A", "abundance fitness": "-0.054 ± 0.042"}
{"variant": "K35F", "abundance fitness": "-0.339 ± 0.1"}
{"variant": "K35Q", "abundance fitness": "0.093 ± 0.048"}
{"variant": "K35Y", "abundance fitness": "-0.456 ± 0.12"}
{"variant": "R30E", "abundance fitness": "0.074 ± 0.045"}
{"variant": "R30D", "abundance fitness": "0.026 ± 0.065"}
{"variant": "R30M", "abundance fitness": "-0.176 ± 0.072"}
{"variant": "R30V", "abundance fitness": "-0.188 ± 0.049"}
{"variant": "R30P", "abundance fitness": "-1.05 ± 0.17"}
{"variant": "R30H", "abundance fitness": "-0.067 ± 0.065"}
{"variant": "R30Y", "abundance fitness": "-0.056 ± 0.087"}
{"variant": "R30T", "abundance fitness": "-0.07 ± 0.058"}
{"variant": "R30K", "abundance fitness": "-0.07 ± 0.081"}
{"variant": "R30G", "abundance fitness": "-0.335 ± 0.043"}
{"variant": "R30I", "abundance fitness": "-0.31 ± 0.1"}
{"variant": "R30C", "abundance fitness": "-0.275 ± 0.08"}
{"variant": "R30A", "abundance fitness": "-0.359 ± 0.055"}
{"variant": "R30S", "abundance fitness": "-0.088 ± 0.044"}
{"variant": "R30N", "abundance fitness": "0.021 ± 0.1"}
{"variant": "L36E", "abundance fitness": "-0.109 ± 0.055"}
{"variant": "L36F", "abundance fitness": "-0.162 ± 0.091"}
{"variant": "L36S", "abundance fitness": "-0.235 ± 0.052"}
{"variant": "L36C", "abundance fitness": "-0.13 ± 0.064"}
{"variant": "L36Q", "abundance fitness": "-0.222 ± 0.059"}
{"variant": "L36A", "abundance fitness": "-0.135 ± 0.042"}
{"variant": "L36G", "abundance fitness": "-0.224 ± 0.038"}
{"variant": "L36M", "abundance fitness": "-0.05 ± 0.058"}
{"variant": "L36H", "abundance fitness": "-0.151 ± 0.086"}
{"variant": "L36R", "abundance fitness": "-0.26 ± 0.04"}
{"variant": "L36T", "abundance fitness": "-0.139 ± 0.053"}
{"variant": "L36K", "abundance fitness": "-0.165 ± 0.075"}
{"variant": "L36Y", "abundance fitness": "-0.047 ± 0.084"}
{"variant": "L36P", "abundance fitness": "-0.374 ± 0.067"}
{"variant": "L36D", "abundance fitness": "-0.461 ± 0.14"}
{"variant": "E37R", "abundance fitness": "-0.069 ± 0.034"}
{"variant": "E37V", "abundance fitness": "-0.042 ± 0.035"}
{"variant": "E37D", "abundance fitness": "-0.034 ± 0.059"}
{"variant": "E37H", "abundance fitness": "-0.067 ± 0.083"}
{"variant": "E37F", "abundance fitness": "-0.227 ± 0.092"}
{"variant": "E37L", "abundance fitness": "-0.16 ± 0.045"}
{"variant": "E37M", "abundance fitness": "-0.164 ± 0.053"}
{"variant": "E37N", "abundance fitness": "0.014 ± 0.084"}
{"variant": "E37P", "abundance fitness": "-0.559 ± 0.086"}
{"variant": "E37A", "abundance fitness": "-0.13 ± 0.044"}
{"variant": "E37G", "abundance fitness": "-0.319 ± 0.044"}
{"variant": "E37Y", "abundance fitness": "-0.326 ± 0.12"}
{"variant": "E37K", "abundance fitness": "-0.038 ± 0.051"}
{"variant": "E37I", "abundance fitness": "-0.069 ± 0.089"}
{"variant": "E37T", "abundance fitness": "-0.121 ± 0.048"}
{"variant": "E37C", "abundance fitness": "0.011 ± 0.062"}
{"variant": "E37W", "abundance fitness": "-0.311 ± 0.056"}
{"variant": "M34E", "abundance fitness": "0.118 ± 0.051"}
{"variant": "M34K", "abundance fitness": "-0.074 ± 0.06"}
{"variant": "M34Q", "abundance fitness": "0.136 ± 0.056"}
{"variant": "M34R", "abundance fitness": "-0.161 ± 0.042"}
{"variant": "M34W", "abundance fitness": "-0.063 ± 0.054"}
{"variant": "M34T", "abundance fitness": "-0.36 ± 0.077"}
{"variant": "M34D", "abundance fitness": "0.192 ± 0.054"}
{"variant": "M34S", "abundance fitness": "-0.097 ± 0.043"}
{"variant": "M34C", "abundance fitness": "-0.032 ± 0.058"}
{"variant": "M34H", "abundance fitness": "0.047 ± 0.075"}
{"variant": "M34L", "abundance fitness": "0.006 ± 0.036"}
{"variant": "M34P", "abundance fitness": "-0.602 ± 0.12"}
{"variant": "M34V", "abundance fitness": "-0.577 ± 0.082"}
{"variant": "M34G", "abundance fitness": "-0.033 ± 0.039"}
{"variant": "M34I", "abundance fitness": "-0.817 ± 0.22"}
{"variant": "M34A", "abundance fitness": "-0.112 ± 0.049"}
{"variant": "T31I", "abundance fitness": "-0.49 ± 0.22"}
{"variant": "T31D", "abundance fitness": "-0.663 ± 0.16"}
{"variant": "T31F", "abundance fitness": "-0.406 ± 0.15"}
{"variant": "T31Y", "abundance fitness": "-0.46 ± 0.17"}
{"variant": "T31S", "abundance fitness": "-0.043 ± 0.041"}
{"variant": "T31A", "abundance fitness": "-0.288 ± 0.051"}
{"variant": "T31P", "abundance fitness": "-1.16 ± 0.2"}
{"variant": "T31V", "abundance fitness": "-0.394 ± 0.063"}
{"variant": "T31Q", "abundance fitness": "-0.792 ± 0.15"}
{"variant": "T31L", "abundance fitness": "-0.985 ± 0.14"}
{"variant": "T31N", "abundance fitness": "-0.967 ± 0.28"}
{"variant": "T31M", "abundance fitness": "-0.521 ± 0.13"}
{"variant": "T31G", "abundance fitness": "-0.717 ± 0.085"}
{"variant": "T31E", "abundance fitness": "-0.89 ± 0.17"}
{"variant": "T31R", "abundance fitness": "-0.778 ± 0.072"}
{"variant": "T31K", "abundance fitness": "-0.917 ± 0.22"}
{"variant": "T31C", "abundance fitness": "-0.726 ± 0.14"}
{"variant": "T31W", "abundance fitness": "-0.588 ± 0.089"}
